From patent US20240026407A1, “MODIFICATION OF SAPONINS” (GLAXOSMITHKLINE BIOLOGICALS SA, priority 2020, published 2024)
Changes are numbered by the printed parent chain. Names may count otherwise. One block for each molecule: values may come before it.

Key:
[1] = Example 10: deglucosylation of saponins in crude bark extract (50%) using WT and engineered glucosidases G1 to G5; type: biochemical, Quillaja saponaria; details: 50% CBE, 35 degC; for % Right Peak: starting CBE 26; for % Left Peak: starting CBE 30; for % Middle Peak: starting CBE 44
Experimental: Lyophilised powders from clarified cell lysate expressing glucosidases (from Example 8 WT glucosidase and engineered glucosidase polypeptides G1 to G5) and rhamnosidases (from Example 9 WT rhamnosidase and engineered rhamnosidase polypeptides R1 to R5) were dissolved in 200 mM sodium acetate aqueous solution at pH 5.8 to prepare the enzyme solutions at 4 fold the final reaction concentration as shown in Tables 19 and 20.
Each glucosidase solution was combined with an equal volume of 200 mM sodium acetate aqueous solution at pH 5.8 and separately with an equal volume of 200 mM sodium acetate aqueous solution at pH 5.8 containing 2 mg/ml rhamnosidase R5. This is a sufficient loading of rhamnosidase to effect complete hydrolysis of the relevant rhamnose moiety within 4 hours.
CBE was adjusted to pH of 6.0 to 6.2 with 2M sodium hydroxide and an equal volume added to the enzyme solution to prepare the reaction mix (i.e. 50% CBE concentration in reaction mix) and the concentration of glucosidase and/or rhamnosidase is shown in Tables 19 and 20. The reaction mix was heated to 35 degC for the time indicated in Tables 19 and 20, after which the reaction was quenched by addition of an equal volume of MeCN containing 2% acetic acid and shaken at room temperature for 10 mins prior to centrifugation (10 min, 4 degC) to remove particulates. Samples were analysed by UV HPLC using method of Experiment 4-4.
The change in composition of the Left, Middle and Right peaks is shown in Tables 19 and 20. The composition changes by the action of the enzymes depending on the presence or absence of the partner enzyme. The extent of reaction is proportional to the enzyme concentration and the reaction time under these conditions. The tables show data for enzyme concentrations and the reaction times providing for equivalent extents of reaction. The improvement resulting from the mutations introduced for each variant is equal to the fold change in enzyme concentration×time (i.e. fold improvement=(enzyme concentration×time) for preceding variant÷(enzyme concentration×time) for later variant). A cumulative fold improvement over the original enzyme variant is calculated by the product of the individual fold improvements.

[2] = Example 8: screening of glucosidase variants for deglycosylation of saponins in crude bark extract (FIOP); type: biochemical, Quillaja saponaria; details: for Cumulative FIOP (cf WT): estimate; for FIOP: fold improvement over parent
Experimental: Libraries of genetic variants encoding mutations in the wild type Modestobacter marinus glucosidase (SEQ ID No. 262) were prepared using molecular biology techniques, enzymes were prepared linked to an N-terminally located His-tag. Single monoclonal colonies were grown in 400 ul of expression medium and protein expressed. Cell pellets were lysed in 200 ul of the relevant buffer (Table 16)
Lysate was diluted appropriately in the relevant buffer to allow a lysate loading of the indicated % loading (1% loading corresponds to use of 2 ul original lysate in a 200 ul reaction). In some experiments a rhamnosidase was also present during the screening reaction (and also in controls, negating any impact on results).
Crude bark extract (CBE) obtained by aqueous extraction of Quillaja saponaria and containing at least 2.80 mg/ml QS-21 (by HPLC-UV). The pH of CBE was adjusted to pH 6 by dropwise addition of 2M NaOH with stirring. The relevant concentration of the relevant glucosidase was added. The appropriate relative volume of pH 6 CBE (160 ul (for 80%) or 150 ul (for 75%)) was added to each well of the reaction plate. The reaction plate was sealed and incubated at the relevant temperature with shaking overnight for between 18 and 22 hours.
The reaction plate was quenched by adding 200 uL of MeCN (2% AcOH, 1 mg/mL hexanophenone) to each well of the plates. The quenched reaction plate was re-sealed and incubated at 20 deg C. with shaking for 10 min. The reaction plate was then centrifuged (10 min, 4 degC).
200 uL was transferred from each well of the quenched plate to the corresponding wells of a fresh 96 well plate and sealed. The plate was analysed by UV HPLC with the method below:
A negative control (a lysate not expressing test enzymes) and a positive control (expressing the parent comparator—wild type or previous variant as appropriate). Fold improvement over parent (FIOP) for the glucosidase (shorter method) is calculated as follows:
% right peak=100*right peak area/(right peak area+left peak area)
Average % right peak area is calculated for negative controls (per plate) and subtracted from all wells to give the increase in % right peak for each well above average negative control Average increase in % right peak is calculated for positive controls per plate
FIOP=observed increase in % right peak divided by average positive control increase

[3] = glucosidase 0.1 mg/ml + rhamnosidase R5 0.5 mg/ml, 4 h
[4] = glucosidase 0.1 mg/ml, no rhamnosidase, 4 h
[5] = screen temp 35, pH 6, lysate loading 0.14%, CBE loading 75%, 100 mM Sodium acetate, Rham Present
[6] = glucosidase 0.78 mg/ml + rhamnosidase R5 0.5 mg/ml, 7 h
[7] = glucosidase 0.78 mg/ml, no rhamnosidase, 7 h
[8] = screen temp 20, pH 6, lysate loading 2.50%, CBE loading 80%, 100 mM Potassium phosphate, Rham Present
[9] = glucosidase 1.56 mg/ml + rhamnosidase R5 0.5 mg/ml, 7 h
[10] = glucosidase 1.56 mg/ml, no rhamnosidase, 7 h
[11] = screen temp 20, pH 6, lysate loading 10%, CBE loading 80%, 100 mM Potassium phosphate, Rham None

Cumulative Fold improvement in primary enzyme loading × time [1, 3]: 834
Fold improvement in primary enzyme loading × time [1, 3]: 6.5
Cumulative Fold improvement in primary enzyme loading × time [1, 4]: 834
Fold improvement in primary enzyme loading × time [1, 4]: 6.5
B1: Variant G5: engineered glucosidase polypeptide, variant of Modestobacter marinus glucosidase SEQ ID No. 262 (protein)
chain: MNPASSTRTDTMTDTTARTDSRLTDALAALSLEQKVQLLTGRDYWNTWPIEEIGLRRILVSDGPSGVRGEVWDERDPSLNLPSATALASAWDPDIARRYGAAAAVEARRKGVDVVLGPTINLHRSPLGGRHFEAFSEDPVLTAELAAAYVTGVQDNGVGATPKHYVANDFETDRFTVDVRADERTLRELYLLAFEKAVTEARAWLVMSAYNGINGATATENDLLETPLNSEWGFDGVVVSDWTAVRSLESARSSQDLVMPGPLGPWGDALVEAVRTGAIDESVVDRKVLRILTLAQRVGALEGSPAIDPVWVEDGVALAREAAVEGTVLLENRDELPWDATSLRKVAVIGNNAAWAMTQGGGSANVCPEYTVSPLDGVRAALPDAEVSYSLGAVVRDGLVELPLAELTNPVTGGPGLRARFLTADGAELFGEDRRKSVLVYQGGDAPIAAAATYELTARWTPTESQTVRLGFACFGAAQLYVDGELLVESDLQPSGTDLGAAFMNPLTASAEVELVAGKPVDVRLVHDLSAKEGFAAHALILQLGTEPAEVDEDALIAEAAEAAEAADVVLVVVGTNSIVESEGYDRESLSLPGRQDDLVRAVVAANPRTVVLVNAGAPVLLPWRDDVAALLLGWFGGQEFGNAVADVLLGVAEPGGRLPTTWPAAEADVPVLSCTPVDGVVEYTEGIHIGYRAWLRSGATPAYWFGSGQGYTCVELTGVEAPSRARPGEIVTVSVEVANRGERDGKQVVQVYAEKPDSTVDRPVRWLVGSAPVRVPAGQTAQVEVAVPTRYLAHWAGGWQYEPGVYRLRVGTTAVELPLETTLEVSA
modifications: Seq ID No. 262 with mutations F44Y, V263L, R357M, T365N, F442Q, L474C, I475F, F541I, A355W, L367C, Q396R
time to complete hydrolysis of the relevant glucose moiety ([1]; 2 mg/ml glucosidase G5 solution (before mixing with rhamnosidase solution and CBE)): ≤ 4 h
cumulative fold improvement over WT glucosidase ([1]; from enzyme concentration x time for equivalent extent of reaction): approximately 800 fold
% change in Left Peak [1, 3]: −34%
% change in Middle Peak [1, 3]: −83%
% change in Right Peak [1, 3]: 280%
% Right Peak [1, 3]: 73%
% Left Peak [1, 3]: 20%
% Middle Peak [1, 3]: 7%
% change in Left Peak [1, 4]: −11%
% change in Middle Peak [1, 4]: −56%
% change in Right Peak [1, 4]: 208%
% Right Peak [1, 4]: 54%
% Left Peak [1, 4]: 27%
% Middle Peak [1, 4]: 19%
Cumulative FIOP (cf WT) [2, 5]: 900
FIOP [2, 5]: 3

Cumulative Fold improvement in primary enzyme loading × time [1, 6]: 64
Fold improvement in primary enzyme loading × time [1, 6]: 2.0
Cumulative Fold improvement in primary enzyme loading × time [1, 7]: 64
Fold improvement in primary enzyme loading × time [1, 7]: 2.0
B2: Variant G3: engineered glucosidase polypeptide, variant of Modestobacter marinus glucosidase SEQ ID No. 262 (protein)
chain: B1 chain with L263V, W355A, C367L, R396Q, A473F, I541F
modifications: Seq ID No. 262 with mutations T365N, R357M, A473F, L474C, I475F, F44Y, F442Q
% change in Left Peak [1, 6]: −31%
% change in Middle Peak [1, 6]: −79%
% change in Right Peak [1, 6]: 270%
% Right Peak [1, 6]: 70%
% Left Peak [1, 6]: 21%
% Middle Peak [1, 6]: 9%
% change in Left Peak [1, 7]: −19%
% change in Middle Peak [1, 7]: −50%
% change in Right Peak [1, 7]: 206%
% Right Peak [1, 7]: 53%
% Left Peak [1, 7]: 24%
% Middle Peak [1, 7]: 22%
Cumulative FIOP (cf WT) [2, 8]: 125
FIOP [2, 8]: 2.5

Cumulative Fold improvement in primary enzyme loading × time [1, 9]: 32
Fold improvement in primary enzyme loading × time [1, 9]: 4.0
Cumulative Fold improvement in primary enzyme loading × time [1, 10]: 32
Fold improvement in primary enzyme loading × time [1, 10]: 4.0
B3: Variant G2: engineered glucosidase polypeptide, variant of Modestobacter marinus glucosidase SEQ ID No. 262 (protein)
chain: B1 chain with Y44F, L263V, W355A, C367L, R396Q, Q442F, A473F, I541F
modifications: Seq ID No. 262 with mutations T365N, R357M, A473F, L474C, I475F
% change in Left Peak [1, 9]: −26%
% change in Middle Peak [1, 9]: −82%
% change in Right Peak [1, 9]: 269%
% Right Peak [1, 9]: 70%
% Left Peak [1, 9]: 22%
% Middle Peak [1, 9]: 8%
% change in Left Peak [1, 10]: −15%
% change in Middle Peak [1, 10]: −57%
% change in Right Peak [1, 10]: 213%
% Right Peak [1, 10]: 55%
% Left Peak [1, 10]: 26%
% Middle Peak [1, 10]: 19%
Cumulative FIOP (cf WT) [2, 11]: 50
FIOP [2, 11]: 10
